The results in this text go back to paper PMC10123652, “An Antibody Targeting Fibroblast Activation Protein Simultaneously Fused to Interleukin-2 and Tumor Necrosis Factor Selectively Localizes to Neoplastic Lesions” (Antibodies, 2023).

One may read the stoichiometry N as a count of units in the complex or per binding partner. One may read the Kd as the free concentration of one partner at which half of the binding sites on the other are occupied at equilibrium, for simple one-to-one binding.

Test [1] concerns the target IL2-7NP2-TNF^mut (human). The test is described as follows: SEC; Superdex 200 Increase 10/300 GL; purified protein dialyzed against PBS pH 7.4; IgG (150 kDa) and SIP (80 kDa) as controls.
Test [2] deals with T1, recombinant human fibroblast activation protein (FAP) (Homo sapiens, UniProt Q12884).
T1 construct: also called human FAP antigen; hFAP
T1 sequence (Q12884 whole entry): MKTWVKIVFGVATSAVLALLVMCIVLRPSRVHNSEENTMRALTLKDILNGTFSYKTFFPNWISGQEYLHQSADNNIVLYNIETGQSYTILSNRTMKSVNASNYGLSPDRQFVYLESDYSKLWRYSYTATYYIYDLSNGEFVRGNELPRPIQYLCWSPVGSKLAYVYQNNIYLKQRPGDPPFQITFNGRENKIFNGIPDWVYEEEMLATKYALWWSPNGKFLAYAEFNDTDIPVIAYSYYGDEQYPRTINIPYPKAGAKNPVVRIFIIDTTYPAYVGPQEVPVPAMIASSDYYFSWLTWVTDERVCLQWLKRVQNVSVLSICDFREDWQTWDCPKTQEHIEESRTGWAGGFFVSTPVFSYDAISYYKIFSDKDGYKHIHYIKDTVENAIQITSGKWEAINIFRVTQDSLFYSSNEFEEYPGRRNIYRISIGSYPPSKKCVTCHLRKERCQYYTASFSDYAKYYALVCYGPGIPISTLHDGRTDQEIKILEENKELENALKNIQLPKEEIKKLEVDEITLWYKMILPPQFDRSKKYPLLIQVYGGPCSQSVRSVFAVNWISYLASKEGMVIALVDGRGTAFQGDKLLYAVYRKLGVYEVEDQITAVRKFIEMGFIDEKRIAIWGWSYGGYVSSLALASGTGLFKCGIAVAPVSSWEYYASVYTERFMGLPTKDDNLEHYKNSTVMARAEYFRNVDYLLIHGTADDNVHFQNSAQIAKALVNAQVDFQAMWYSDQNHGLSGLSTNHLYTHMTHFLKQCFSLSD
The test is described as follows: ELISA; plate coated with 0.1 µM human FAP overnight at 4 °C in 50 mM HEPES, 100 mM NaCl, pH 7.4; serial dilutions of IL2-7NP2-TNF^mut in 2% milk-PBS, 4 h at RT; detection with Protein A-HRP; triplicate. As to conditions: both partners purified.

B1: IL2-7NP2-TNF^mut (other, human)
VH: EVQLLESGGGLVQPGGSLRLSCAASGFTFSSYAMSWVRQAPGKGLEWVSAIGSVGGPTYYADSVKGRFTISRDNSKNTLYLQMNSLRAEDTAVYYCAKRLAWFDYWGQGTLVTVSS
VL: EIVLTQSPGTLSLSPGERATLSCRASQSVSSSYLAWYQQKPGQAPRLLIYGASSRATGIPDRFSGSGSGTDFTLTISRLEPEDFAVYYCQQSGKGPLTFGQGTKVEIK
notes: wild-type human interleukin-2 (IL2), N-terminal moiety of the fusion; mutated version of human TNF (TNFα); Non-covalent homotrimer; also called dual-cytokine antibody fusion protein
B1 registered a stoichiometry N in test [1] of 3. Further, in test [2], the Kd is around 0.1 nM.
